Experimental data from the supplement of paper PMC10724198.
± gives the standard deviation of the averaged measurements.

System: Saccharomyces cerevisiae
Assay: protein stability index of tFT-peptide fusion (C-terminal peptide) (PSI (0-1 scale)); higher = more stable (slower turnover)
Conditions: genetic background: wild type; temperature: 37 C
Experimental: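 MPS profiling in S. cerevisiae of the tFT-X12 degron library: putative degron peptides plus stable controls, 12 aa, fused to the C-terminus of a sfGFP-mCherry timer. Cells are FACS-sorted into 8 mCherry/sfGFP bins and deep-sequenced. PSI runs from 0 (unstable) to 1 (stable). Backgrounds are wild type, das1Δ and doa10Δ at 30 °C, and wild type, das1Δ, cdc34-1 and cdc53-1 at 37 °C; 2-3 technical replicates each.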
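Further: PSI is a weighted mean of sequencing reads over stability bins, variants kept only with over 10 reads, mCherry proximal and sfGFP distal, peptide attached via GGGS linker.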

First: TMSGVTRCVLVL
Second: TNEWMDVKVFCY
The protein stability index of the first is lower: 0.5379 ± 0.0049 for the first, 0.6398 ± 0.0051 for the second.

First: TSFSSGEALGVG
Second: TVHVIVVCRELA
The protein stability index of the first is higher: 0.48763 ± 3.8e-05 for the first, 0.381 ± 0.007 for the second.

First: TVRLPLILPCVL
Second: TVRVWPRNLWFS
The protein stability index of the first is higher: 0.55 ± 0.013 for the first, 0.235 ± 0.031 for the second.

Going from TWGGGRVSLGVG to TYHRSYLLATVV, the protein stability index falls from 0.401 ± 0.022 to 0.331 ± 0.00026.

Going from VACTCILVALVV to VAFLYCHFFYCI, the protein stability index rises from 0.165 ± 0.005 to 0.47 ± 0.009.

First: VAVFFFCRVFFL
Second: VCCYILFFLFPV
The protein stability index of the first is lower: 0.318 ± 0.04 for the first, 0.506 ± 0.018 for the second.

Compared with VCLRICLVTLMM, VCPCCPYVMIAG is higher in protein stability index: 0.4126 ± 0.0014 for the first, 0.494 ± 0.0062 for the second.

Going from VCSCLVLVFCCC to VCVARICIWDFL, the protein stability index rises from 0.285 ± 0.024 to 0.596 ± 0.0092.

Going from VCWVYESWKCLA to VCYLMRSLTFAY, the protein stability index rises from 0.107 ± 0.013 to 0.4733 ± 0.0016.

VECVCVVVVRRM and VFLCVRLGFIFL are within error of each other in protein stability index: 0.466 ± 0.021 for the first, 0.471 ± 0.023 for the second.

First: VFLLCLGFLVFS
Second: VFLRRFGVPWVF
The protein stability index of the first is lower: 0.3886 ± 0.0038 for the first, 0.429 ± 0.0074 for the second.

First: VFLSCFFVSWVV
Second: VFLYVYAVWFLV
The protein stability index of the first is higher: 0.369 ± 0.03 for the first, 0.118 ± 0.023 for the second.

Going from VFSFLYHVVPVL to VFVMRDGFLRKV, the protein stability index falls from 0.4554 ± 0.0018 to 0.4507 ± 0.0016.

VFWISRLYLASY and VGDFFVLVGFVA are within error of each other in protein stability index: 0.52 ± 0.02 for the first, 0.5219 ± 0.0043 for the second.

Going from VGDIRSFALWYA to VGGGGRFWVCVG, the protein stability index falls from 0.707 ± 0.011 to 0.552 ± 0.031.

Going from VGVSCLVFFGVV to VIAYSLLSWGDF, the protein stability index falls from 0.633 ± 0.0085 to 0.305 ± 0.016.

Going from VLDFSVPRHVLH to VLFFCLVIYVGV, the protein stability index falls from 0.7472 ± 0.0033 to 0.26 ± 0.0013.

Compared with VLILFFLVVFYV, VLLCASPMLAVV is higher in protein stability index: 0.3358 ± 0.0033 for the first, 0.39 ± 0.0039 for the second.

First: VLLCGCVWLWWG
Second: VLLFGLAFFFSF
The protein stability index of the first is higher: 0.5013 ± 0.0039 for the first, 0.408 ± 0.033 for the second.

VLLGYPRILSLF and VLLRSRLLRRLS are within error of each other in protein stability index: 0.25 ± 0.0096 for the first, 0.235 ± 0.02 for the second.

Compared with VLRCIWLCFLSV, VLRLVLFVLISV is lower in protein stability index: 0.561 ± 0.036 for the first, 0.352 ± 0.016 for the second.

VLSCVWFVVVGV and VLYWTGTLFVSL are within error of each other in protein stability index: 0.4017 ± 0.0016 for the first, 0.424 ± 0.038 for the second.

First: VPIIVVVYVFVT
Second: VRFLLSLCCALL
The protein stability index of the first is lower: 0.258 ± 0.0081 for the first, 0.596 ± 0.032 for the second.

First: VRLYLRSCVVES
Second: VRMVIFSSVYLT
The protein stability index of the first is lower: 0.4148 ± 0.0031 for the first, 0.448 ± 0.02 for the second.

Compared with VRWLVFFLFLFG, VSCLDLCFVISR is higher in protein stability index: 0.497 ± 0.016 for the first, 0.626 ± 0.018 for the second.

Compared with VSCYYVFLIPFW, VSFLLYNFLSVF is lower in protein stability index: 0.56 ± 0.0097 for the first, 0.0652 ± 0.015 for the second.

VSFLVSIFVSGV and VSLLSLGYVFVY are within error of each other in protein stability index: 0.332 ± 0.015 for the first, 0.319 ± 0.0037 for the second.

Going from VSLLVFVVSSRV to VSPPPLSPPLSR, the protein stability index rises from 0.444 ± 0.013 to 0.688 ± 0.014.

Going from VTMTPSLCFSYS to VTRLLLSRIDCY, the protein stability index falls from 0.632 ± 0.016 to 0.468 ± 0.022.

Compared with VVFLFVEAVVGV, VVFVVGAPPVLC is higher in protein stability index: 0.0933 ± 0.022 for the first, 0.5068 ± 0.0019 for the second.

Compared with VVGVVVCWGCGW, VVPWLGYVSCFS is lower in protein stability index: 0.535 ± 0.0068 for the first, 0.5026 ± 0.0044 for the second.

Going from VVRAVLCVCASV to VVRYGGVIAFRG, the protein stability index rises from 0.489 ± 0.018 to 0.684 ± 0.13.

First: VVWCLLARVLLV
Second: VWICPTLFLLFS
The protein stability index of the first is lower: 0.243 ± 0.011 for the first, 0.529 ± 0.0063 for the second.

Compared with VYDVSVGVAVVG, VYKSTHKIYILT is higher in protein stability index: 0.48822 ± 0.00017 for the first, 0.5493 ± 0.0012 for the second.

Compared with VYQAFIFRMSLF, VYRVTGSWLMWV is higher in protein stability index: 0.248 ± 0.0046 for the first, 0.4879 ± 0.0027 for the second.

Going from VYTVGFVCWLVY to VYWRGLHLQRLL, the protein stability index rises from 0.323 ± 0.016 to 0.4753 ± 0.0016.

Going from WALWGFVFWDWW to WCGLFCRSVFVV, the protein stability index falls from 0.501 ± 0.0078 to 0.108 ± 0.0023.

First: WDEVVAIVVCPV
Second: WFALFYFLVSAF
The protein stability index of the first is higher: 0.457 ± 0.015 for the first, 0.254 ± 0.0038 for the second.

Going from WFCYFSLYVFLL to WFFRCLFLLSLF, the protein stability index rises from 0.153 ± 0.026 to 0.23 ± 0.025.
